This assay addresses T1, human epidermal growth factor receptor 2 (HER2) (Homo sapiens, UniProt P04626).
T1 construct: human HER2, cDNA expressed as HER2-T2A-mCherry; HER2 on the cell surface, mCherry intracellular after T2A self-cleavage; residues of it may stay on the C-terminus after self-cleavage (surmise); also called K562/HER2 cells; source: K562, lentiviral transduction with pCSII/HER2-mCherry, on the cell surface
In words: flow cytometry on cells; K562/HER2 cells incubated with 0.5-1600 nM purified scFv-scFc-H6 for 90 min at 4 °C, detected with AF488-conjugated anti-HisTag antibody; 3% FBS-PBS. The settings on record: one partner purified.

B1: scFv(Niv), scFv of PD-1 targeting nivolumab, purified as scFv-scFc-H6 fusion protein (Fc fusion)
VH: QVQLVESGGGVVQPGRSLRLDCKASGITFSNSGMHWVRQAPGKGLEWVAVIWYDGSKRYYADSVKGRFTISRDNSKNTLFLQMNSLRAEDTAVYYCATNDDYWGQGTLVTVSS
VL: EIVLTQSPATLSLSPGERATLSCRASQSVSSYLAWYQQKPGQAPRLLIYDASNRATGIPARFSGSGSGTDFTLTISSLEPEDFAVYYCQQSSNWPRTFGQGTKVEIK
notes: scFv of nivolumab; Control scFv; not shown: single-chain Fc (two human IgG1 Fc domains; residues 104-330 of UniProt P01857), C-terminal, kept; His6, C-terminal, kept
On to B1, for which the binding result was “no binding (tested: 1600 nM)”.

B2: scFv(Dac), scFv of the CD25-targeting monoclonal antibody daclizumab, purified as scFv-scFc-H6 fusion protein (Fc fusion)
VH: QVQLVQSGAEVKKPGSSVKVSCKASGYTFTSYRMHWVRQAPGQGLEWIGYINPSTGYTEYNQKFKDKATITADESTNTAYMELSSLRSEDTAVYYCARGGGVFDYWGQGTLVTVSS
VL: DIQMTQSPSTLSASVGDRVTITCSASSSISYMHWYQQKPGKAPKLLIYTTSNLASGVPARFSGSGSGTEFTLTISSLQPDDFATYYCHQRSTYPLTFGQGTKVEVK
notes: scFv of daclizumab; Control scFv; not shown: single-chain Fc (two human IgG1 Fc domains; residues 104-330 of UniProt P01857), C-terminal, kept; His6, C-terminal, kept
Take B2: the binding result was “no binding (tested: 1600 nM)”.

The record behind these values is paper PMC11133372 (Communications Biology, 2024).
